Test results as given in the nanobody polyreactivity screen of Harvey et al. (2022).

assay: yeast display, Sf9 membrane polyspecificity reagent, FACS + sequencing; frameworks hold sequencing errors
Outline: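 A nanobody's polyreactivity label depends on the gate it was sorted from. Yeast display cells were stained with 10% biotinylated, detergent-solubilized Sf9 membrane reagent for 1 hour at 4 °C, enriched on streptavidin microbeads and sorted by FACS. The low and high (top ~1%) gates were set on anti-HA fluorescence for expression and streptavidin fluorescence for reagent binding.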

| Sequence | polyreactivity (PSR sort gate) |
| --- | --- |
| QVQLQESGGGLVQVGGSQRLSCAASGNIFYNYAMVWYRNAQGKEREFDATIKNGTSINYADSVKGRFTISRDNAKNTVYLQMNSLTPEDTAVYYCAADLSWTDNLFYWGQGTQVTVSS | low polyreactivity |
| QVQLQESGGGMVLAGGSLRLSCSASGTISVYGTMGWYRQAPGKEREFVATIDPGTHTNYADSVKDRFTISRDNAKNTVYLKMNSLKPEVTAVYSCAVEAGSDWPYRYWGQGTQVTVSS | low polyreactivity |
| QVQLQESGGGMVQAGGSLRLSSAASGYISWADYMGWYRQAPGKERELVAGIGYGSTTYYADSVKGRFTISRDNAKNTAYLQMNSLKPEDTAVYYCAVGCYRDTAYKYWGQGTQVTVSS | low polyreactivity |
| QVQLQESGGGPVLAGGSLRLSCAASGTIFVRLDMGWYRQAPGKEREFVATIGSASSTYYADSVKGSFTISRDNVKNTVYLQMNSLKPEDTAVYYCAVSAAEQSRHYYWDQGTQVTVSS | low polyreactivity |
| QVQLQESGGGQVQAGGSLRLSCAASGTIFLYAFMAWYRQAPGKEPKLVAAIDVGTTTKYADSVKGRFTISRDNAKNTVYLQMNSLKPEDTAVYYCAAYLCYLDDLGYWGQGTQVTVSS | low polyreactivity |
| QVQLQESGGLVQAGCLRLSCAASGSVSYHEAMGWYRQAPGKERELVATISFGANTNYADSVKGRFTISRDNAKNTVYLQMNSLKPEDTAVYYCAAESLFDDYYGYWGQGTQVTVSS | low polyreactivity |
| QVQLQESGSGLFQAGGSLRQSCAASGAIFPAYLMGWYRQAPGKERELVAGISYGSITYCADSVKGRFNISRDNAKNTVYLKMNSLKPEDTAVFGYWGQGTQVTVSS | low polyreactivity |
| QVQLQESGSGLVQAGGSLRLSCAASGAIFPAYLMGWYRQPPGKERELVAGISYGSITYCADSVKGRFNISRDNAKNTVYLQMNSLKPEDTAVYYCAVWRPGGDEYYYWGQGTQVTVSS | low polyreactivity |
| QVQLQESGVCLVQAGGSPRLSCAASDNIFPDSVMCWYRQAPGKERELVATIGFGATTNYADSVKGRFTISRDNAKNTVYLQMNSLKPEDTAVYYCAADPLNYEYFCYWGQGTQVTVSS | low polyreactivity |
| QVQLQESGVGLVQAGGSLRLSCAASGSISAVGAMGCYRQAPGQEREFAASVNWGTNTNYADSVKGRFTISRDNAKNTLYLQMNSLKPEDTAVYYCAVLPDWETRHDYWGHGTQVTVSS | low polyreactivity |
| QVQLQESRGGLVQAGGSLRLSCAASGYISLAQTIGWYRQAPGKEREFVASIALGSSTYYTDSVKGSFTISRDNAKTTVYLQMISLQAEDTAVYYCAARVGASYAHDFWGQGTQVTVSS | low polyreactivity |
| QVQLQESRGGLVQVGGSQRLSCAASGNIFYNYAMGWYRHANGKEREFDATINHGTSINYADSVKGRFTISRDNAKNTLYLQMNSLKPEDTAVSYCAADLSWTDNLFYWGQGTQVTVTS | low polyreactivity |
| QVQLQESSGGLVQAGGSLRMGCAASGTIFHFHIMGWYRPAPGKEREFVAAISYGTSTYYADSVKGRFTISRDNAKNTVYLQMNSQKPEDTAVYYCAVYDYLEVYCWYWGQGTQVNVSS | low polyreactivity |
| QVQLQESSGGLVQAGGSLRMSCAASGTNFHFHIMGWYRQAPGKEREFVAAISYGTSTYYADSVKGRFTISRDNAKNTVYLQMNSQKPEDTAVYYCAVYDYLEVYCWYWGQGTQVTVSS | low polyreactivity |
| QVQLQETGGGLFQAGVSLRLSCATSGSIFWGNAMGWYRQSPGKDRELVAAISWGGGRTYYADSVKGRFTISRDNAKITVYLQINSLKPEDTAVYSCNTRYPYVVSTGYDYWGQGTQVTVSS | high polyreactivity |
| QVQLQGSGGGLVQAGGSLRLSCAASGYIFQNVPMGWNRQAPGKERELVAGIDNGTSTNYADSVNGRFTISRDNAKKTVYLQMNSLKPEDTAVYYCAAAGQADNTLGYWGQGTQVTVSS | low polyreactivity |
| QVQLQQSGDGLVQAVGSLRLSCAPSGSLSGYYSMGWYREAPGKVRELVAGIDAFGSSTNYADCVIGRFTISRDKATNTVYLQMKSLKPEDTAVYYCAARPDGVRLFSYWGQGTQVTESS | low polyreactivity |
| QVQLQVSGGDLVQAGGSLRLSCAASGTINGLTSMGWYRQAPGKEREFVAAITDGGYTNYADSVKGRFTISRDNAKNTVYLQMISLKPEDTAVYYCAVLFSDDAYYAYWGQGTQVTVSS | low polyreactivity |
| QVQLQVSGGGLVQAGGSLRLSCAASGSIFLTSEMGWYRQAPCKERELVAANATGTSTNYADSVKGRFTISRDNAKNTVYLQMKSLKPEDTSVYYCAAGTQAHAFVVRPIEMDYWGQGTQVTVSS | low polyreactivity |
| QVQLVASGGGLVLAGGILRLSCAASGSTFVSNALGWYRLAPGKERALVAVITFRGGTTYYADSVKGRFTISRDNAKNTVYLQMNSLKPEDTAGYYCAARSYQYSYSFYWGQGTQVTVSS | high polyreactivity |
| QVQLVASGGGLVQAGGSLLLSCAASGRIFAEYAMGWSRQAPGKERELVAVIDGTGGSTYYADSVKGRFTISRDNEKNTVYLLMNSLNPEDTAVYYCAATGRGSGRRFNYWGQGTQVTVSS | high polyreactivity |

| Sequence | polyreactivity (PSR sort gate) |
| --- | --- |
| QVQLVASGGGLVQAGGSLRLSCAASGRIFSSNAMGWSRQAPGKEWELVAAITKSGGGTYYADSVKGRFTISRDNAKNTVYLQLNSLKPEDTAVYYCAKGQYRSSGYDYWGQGTQVTVSS | low polyreactivity |
| QVQLVASGGGLVQAGGSLRLSCAASGRTFYEYSIGWYRQAPGKERELDAGITSGGSTNYSDTVKGRFTISRDNATNPVFLLMNRLNPEDTAVYYCAAAYWGYEYDYWGQGTQVTLSS | low polyreactivity |
| QVQLVASGGGLVQAGGSLRLSCAASGSIFRFNPMGWSRHEPGKERELVAAISQSGSSTYYADSLKGRFTISRDNAKNTVYLQMNSLKPEDTAVYYCNVYTYQPYRMDLWRQGTQVTVSS | high polyreactivity |
| QVQLVASGGGLVQAGGSLRLSCAASGSTFRVNVMGWYRQAPGIERELVADITTSGGSTYYADSVKGRFTISRDNAMITVYLQINSLTPEDTAVYYCNTTYQSGWGPDMDYWGQGTQVTVSS | low polyreactivity |
| QVQLVASGGGLVQAGGSLRLSCAASGTTLYYYAKGWYRQAPGKEREMGAYISSSGDRTYYADSVNGRFTISRDNAKNTVDLQMNSLKPEDTAVYYCNAYLYVSGLDYATYSLGYWGQGTQVTVSS | low polyreactivity |
| QVQLVASGGGLVQAGGSLRLTCAASGITSWYYAMGWYRQAPGKERELVAAITSDGSTYYADSVKGRFTISRDNAKNTVYLQMNSLNPEDTAVYYCAAERDYWIPDSYLVVMDYWGQGTQVTVSS | low polyreactivity |
| QVQLVDSAGGLVQAGGSLRLSCAAYGRTNYLYSMGWYRQAPGKERELVAAIRTGDGSTYYADSVKGRFTISRDNAKNTVYLQMISLKPEDTAVYYCAARVGKRYNWGQGTQVTVSS | high polyreactivity |
| QVQLVDSGGCLVQAGGSLRLSCAASGSTFPTYAMGWYRQAPGKERELVAAITWSGGSTYYADSVKGRFTISRDNAKNTVYLQMNSLKPEDTAVYYCADSAYVQPYDYWGQGTQVTVSS | high polyreactivity |
| QVQLVDSGGGFFQAGGSLRLSCAPSGITFVVYAMGWYRQAPGKERDLVAAITAGGSTYADSVKGRFTISRDNAKTTVYLQMNSLKPEDTAVYDCNTGLYLYVGLGDHDYWGQGTQVTVSS | low polyreactivity |
| QVQLVDSGGGLDQAGGSLRLSCAASGSIFVSEYDMVWYIQAPGKERELVARSRWSSGSTYYADSVKGRFSISRDYAKNTVYVQMNSLKPEDTAVYYCNTVRTRERTDYDYWGQGTQVTVSS | low polyreactivity |
| QVQLVDSGGGLDQAGGSLRLSCAASGSTFYYNAMGWYRQPPGKARELVARISRSGGSTYADSVKGRFTISRDNAMNTVYLQMNSLKPEDTAVYYCNADADGTPEFTSYSVRYDYWGQGSQVTVSS | low polyreactivity |
| QVQLVDSGGGLLQAGGSLRLSCAASGNIFGRYAMGWYRQAPGKEREFVATITYSGGSTYYADSVKGRFTISRDNAKNTVYLQMNSLKPEDTAVYYCAARVGRPSLVAAKYDYWGQGTQVTVSS | high polyreactivity |
| QVQLVDSGGGLLQAGGSLRLSCAASGRTCRGYAMGWYRQAPGKEWELVAAITSGGSTNYADSVKGRFTISRDNATNTVSIQMNRLKPEETAVYYCAAGRSTGQYRYYFWGLGTQVTVSS | high polyreactivity |
| QVQLVDSGGGLLQAGGSLRLSCAASGSTFVAYAMGWYRQAPGKEREFVAGISSSTGGTRYADSVKGRFTISRDNAKNTVYLQMNSLKPEDSAVYYCAADLYFYYVWIRVYWGQGTQVTVSS | low polyreactivity |
| QVQLVDSGGGLVLAGGSLRLSCAASGRTFAYYVMGWYREAPGKERELVAAISGRGGRTNYADSVKGRFTISRDNANNTVFLQMNSLKPEDTAVYYFAADLKLGTFNYWGQGTQVTVSS | high polyreactivity |
| QVQLVDSGGGLVQAGCSLRLSCPASGGTFGYYAMGWYRQAPGKERELVAGINYSGGRTYYADSVKGRFTISRDNAMNTVYLKMDSLKPEDTAVYYCAAQAYVGYRGYDYWVQGTQVTVSS | high polyreactivity |
| QVQLVDSGGGLVQAGGILSLSCASSGRTFYRYAMGWYRQAPGKERELVAAISATGCSTYYADSVKGRFTISRDNEKNTGYFQMNIMKPEDSAVDYCARGGTTLYWGQGTQLTVSS | high polyreactivity |
| QVQLVDSGGGLVQAGGRLLLSCSDSGINIPYYAMGWYRQAPGKERELVASISYDGTSSYYADSVKGRFTISRDNAKNTVYLHLNSLKPEDTAVYYCAPVPWWPRASYSMDYWGQGTQVTLSS | low polyreactivity |
| QVQLVDSGGGLVQAGGRLRLSCAASGFIIDWNTKGWYRQAPGKERELVAAITESSGSTYYADSVKGRFTISRDNAKNTVYLLMNSLKPVDTAVYYCGAELDVSVCFVSRFHFDYWGQGTQVTVSS | low polyreactivity |
| QVQLVDSGGGLVQAGGRLRLSSAPTGSTFYVYLMGGYRQAHGKERELVAVIDWLGGSTYYADSVKGRFTISRDNAKNTVYLQLNSLKPEDTAVYYCYKDAQFYYNLPYYKERDWGQGTQVTVSS | low polyreactivity |
